The values below come from patent publication US20170369523A1, “TEMPLATE-FIXED BETA-HAIRPIN PEPTIDOMIMETICS THAT ARE LIGANDS FOR G-PROTEIN-COUPLED RECEPTORS (GPCRS) AND ARE MODULATORS OF TRANSCRIPTION FACTORS AND COACTIVATORS” (POLYPHOR AG, priority 2008, published 2017).

The labels stand for the following.
B1: Ex. 2 (peptide)
peptide: cyclo(FEWLAWEF[dP][Hyp])
SMILES: CC(C)C[C@@H]1NC(=O)[C@H](Cc2c[nH]c3ccccc23)NC(=O)[C@H](CCC(=O)O)NC(=O)[C@H](Cc2ccccc2)NC(=O)[C@@H]2C[C@@H](O)CN2C(=O)[C@H]2CCCN2C(=O)[C@H](Cc2ccccc2)NC(=O)[C@H](CCC(=O)O)NC(=O)[C@H](Cc2c[nH]c3ccccc23)NC(=O)[C@H](C)NC1=O
notes: cyclo(-P1..P8-template-)
B2: Ex. 19 (peptide)
peptide: cyclo(FEWLDWEF[dP]P)
SMILES: CC(C)C[C@@H]1NC(=O)[C@H](Cc2c[nH]c3ccccc23)NC(=O)[C@H](CCC(=O)O)NC(=O)[C@H](Cc2ccccc2)NC(=O)[C@@H]2CCCN2C(=O)[C@H]2CCCN2C(=O)[C@H](Cc2ccccc2)NC(=O)[C@H](CCC(=O)O)NC(=O)[C@H](Cc2c[nH]c3ccccc23)NC(=O)[C@H](CC(=O)O)NC1=O
notes: cyclo(-P1..P8-template-)
B3: Ex. 20 (peptide)
peptide: cyclo(FEWLAWEE[dP]P)
SMILES: CC(C)C[C@@H]1NC(=O)[C@H](Cc2c[nH]c3ccccc23)NC(=O)[C@H](CCC(=O)O)NC(=O)[C@H](Cc2ccccc2)NC(=O)[C@@H]2CCCN2C(=O)[C@H]2CCCN2C(=O)[C@H](CCC(=O)O)NC(=O)[C@H](CCC(=O)O)NC(=O)[C@H](Cc2c[nH]c3ccccc23)NC(=O)[C@H](C)NC1=O
notes: cyclo(-P1..P8-template-)
B4: Ex. 24 (peptide)
peptide: cyclo(FEWLAWLF[dP]P)
SMILES: CC(C)C[C@@H]1NC(=O)[C@H](Cc2c[nH]c3ccccc23)NC(=O)[C@H](CCC(=O)O)NC(=O)[C@H](Cc2ccccc2)NC(=O)[C@@H]2CCCN2C(=O)[C@H]2CCCN2C(=O)[C@H](Cc2ccccc2)NC(=O)[C@H](CC(C)C)NC(=O)[C@H](Cc2c[nH]c3ccccc23)NC(=O)[C@H](C)NC1=O
notes: cyclo(-P1..P8-template-)
B5: Ex. 11 (peptide)
peptide: cyclo(FEWYAWEF[dP]P)
SMILES: C[C@@H]1NC(=O)[C@H](Cc2ccc(O)cc2)NC(=O)[C@H](Cc2c[nH]c3ccccc23)NC(=O)[C@H](CCC(=O)O)NC(=O)[C@H](Cc2ccccc2)NC(=O)[C@@H]2CCCN2C(=O)[C@H]2CCCN2C(=O)[C@H](Cc2ccccc2)NC(=O)[C@H](CCC(=O)O)NC(=O)[C@H](Cc2c[nH]c3ccccc23)NC1=O
notes: cyclo(-P1..P8-template-)
B6: Ex. 16 (peptide)
peptide: cyclo(FEWLDWEM[dP]P)
SMILES: CSCC[C@@H]1NC(=O)[C@H](CCC(=O)O)NC(=O)[C@H](Cc2c[nH]c3ccccc23)NC(=O)[C@H](CC(=O)O)NC(=O)[C@H](CC(C)C)NC(=O)[C@H](Cc2c[nH]c3ccccc23)NC(=O)[C@H](CCC(=O)O)NC(=O)[C@H](Cc2ccccc2)NC(=O)[C@@H]2CCCN2C(=O)[C@H]2CCCN2C1=O
notes: cyclo(-P1..P8-template-)
B7: Ex. 27 (peptide)
peptide: cyclo(MEWLDWEF[dP]P)
SMILES: CSCC[C@@H]1NC(=O)[C@@H]2CCCN2C(=O)[C@H]2CCCN2C(=O)[C@H](Cc2ccccc2)NC(=O)[C@H](CCC(=O)O)NC(=O)[C@H](Cc2c[nH]c3ccccc23)NC(=O)[C@H](CC(=O)O)NC(=O)[C@H](CC(C)C)NC(=O)[C@H](Cc2c[nH]c3ccccc23)NC(=O)[C@H](CCC(=O)O)NC1=O
notes: cyclo(-P1..P8-template-)
B8: Ex. 12 (peptide)
peptide: cyclo(FEWLYWEF[dP]P)
SMILES: CC(C)C[C@@H]1NC(=O)[C@H](Cc2c[nH]c3ccccc23)NC(=O)[C@H](CCC(=O)O)NC(=O)[C@H](Cc2ccccc2)NC(=O)[C@@H]2CCCN2C(=O)[C@H]2CCCN2C(=O)[C@H](Cc2ccccc2)NC(=O)[C@H](CCC(=O)O)NC(=O)[C@H](Cc2c[nH]c3ccccc23)NC(=O)[C@H](Cc2ccc(O)cc2)NC1=O
notes: cyclo(-P1..P8-template-)
B9: Ex. 23 (peptide)
peptide: cyclo(EEWLAWEF[dP]P)
SMILES: CC(C)C[C@@H]1NC(=O)[C@H](Cc2c[nH]c3ccccc23)NC(=O)[C@H](CCC(=O)O)NC(=O)[C@H](CCC(=O)O)NC(=O)[C@@H]2CCCN2C(=O)[C@H]2CCCN2C(=O)[C@H](Cc2ccccc2)NC(=O)[C@H](CCC(=O)O)NC(=O)[C@H](Cc2c[nH]c3ccccc23)NC(=O)[C@H](C)NC1=O
notes: cyclo(-P1..P8-template-)
B10: Ex. 22 (peptide)
peptide: cyclo(FLWLAWEF[dP]P)
SMILES: CC(C)C[C@@H]1NC(=O)[C@H](Cc2c[nH]c3ccccc23)NC(=O)[C@H](CC(C)C)NC(=O)[C@H](Cc2ccccc2)NC(=O)[C@@H]2CCCN2C(=O)[C@H]2CCCN2C(=O)[C@H](Cc2ccccc2)NC(=O)[C@H](CCC(=O)O)NC(=O)[C@H](Cc2c[nH]c3ccccc23)NC(=O)[C@H](C)NC1=O
notes: cyclo(-P1..P8-template-)
B11: Ex. 21 (peptide)
peptide: cyclo(FEWLAWYF[dP]P)
SMILES: CC(C)C[C@@H]1NC(=O)[C@H](Cc2c[nH]c3ccccc23)NC(=O)[C@H](CCC(=O)O)NC(=O)[C@H](Cc2ccccc2)NC(=O)[C@@H]2CCCN2C(=O)[C@H]2CCCN2C(=O)[C@H](Cc2ccccc2)NC(=O)[C@H](Cc2ccc(O)cc2)NC(=O)[C@H](Cc2c[nH]c3ccccc23)NC(=O)[C@H](C)NC1=O
notes: cyclo(-P1..P8-template-)
B12: Ex. 7 (peptide)
peptide: cyclo(FEWGAWEF[dP]P)
SMILES: C[C@@H]1NC(=O)CNC(=O)[C@H](Cc2c[nH]c3ccccc23)NC(=O)[C@H](CCC(=O)O)NC(=O)[C@H](Cc2ccccc2)NC(=O)[C@@H]2CCCN2C(=O)[C@H]2CCCN2C(=O)[C@H](Cc2ccccc2)NC(=O)[C@H](CCC(=O)O)NC(=O)[C@H](Cc2c[nH]c3ccccc23)NC1=O
notes: cyclo(-P1..P8-template-)
B13: Ex. 8 (peptide)
peptide: cyclo(FEWLGWEF[dP]P)
SMILES: CC(C)C[C@@H]1NC(=O)[C@H](Cc2c[nH]c3ccccc23)NC(=O)[C@H](CCC(=O)O)NC(=O)[C@H](Cc2ccccc2)NC(=O)[C@@H]2CCCN2C(=O)[C@H]2CCCN2C(=O)[C@H](Cc2ccccc2)NC(=O)[C@H](CCC(=O)O)NC(=O)[C@H](Cc2c[nH]c3ccccc23)NC(=O)CNC1=O
notes: cyclo(-P1..P8-template-)
B14: Ex. 17 (peptide)
peptide: cyclo(FEALDWEF[dP]P)
SMILES: CC(C)C[C@@H]1NC(=O)[C@H](C)NC(=O)[C@H](CCC(=O)O)NC(=O)[C@H](Cc2ccccc2)NC(=O)[C@@H]2CCCN2C(=O)[C@H]2CCCN2C(=O)[C@H](Cc2ccccc2)NC(=O)[C@H](CCC(=O)O)NC(=O)[C@H](Cc2c[nH]c3ccccc23)NC(=O)[C@H](CC(=O)O)NC1=O
notes: cyclo(-P1..P8-template-)
B15: Ex. 9 (peptide)
peptide: cyclo(FEWLAWE[Glu(cHx)][dP]P)
SMILES: CC(C)C[C@@H]1NC(=O)[C@H](Cc2c[nH]c3ccccc23)NC(=O)[C@H](CCC(=O)O)NC(=O)[C@H](Cc2ccccc2)NC(=O)[C@@H]2CCCN2C(=O)[C@H]2CCCN2C(=O)[C@H](CCC(=O)OC2CCCCC2)NC(=O)[C@H](CCC(=O)O)NC(=O)[C@H](Cc2c[nH]c3ccccc23)NC(=O)[C@H](C)NC1=O
notes: cyclo(-P1..P8-template-)

Numbered stars: 1 amine (or outer) side, 2 acyl side, 3 side chain; on linkers, the order of the positions; unused ones are H or OH. Square brackets hold non-standard residues; d marks the D form. Glu(cHx) = L-glutamic acid cyclohexyl ester, O=C(CC[C@H](N[*:1])C(=O)[*:2])OC1CCCCC1; Hyp = O=C(O)[C@@H]1C[C@@H](O)CN1

The target of the experiment is T1, NCoA-1 (UniProt Q15788 257-385, limits assumed).
T1 construct: also called SRC-1
T1 sequence (looked up): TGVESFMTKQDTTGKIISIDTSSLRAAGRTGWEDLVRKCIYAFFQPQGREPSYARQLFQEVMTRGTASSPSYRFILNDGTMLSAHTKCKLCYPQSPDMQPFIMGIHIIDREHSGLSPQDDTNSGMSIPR
Description: competition fluorescence polarization; displacement of FluoSTAT6 from NCoA-1. On the procedure: The mixtures were shaken thoroughly. Fluorescence polarization was measured on a SPECTRAmax M5 spectrometer (Molecular device) following 5-30 min incubation at room temperature. FluoSTAT6 was excited at 490 nm and emission polarization was detected at 525 nm. 40 intensity measurements were collected for each well, 20 at horizontal position of the dynamic polarizer, 20 at parallel position. As the fraction of FluoSTAT6 bound to NCoA-1 is correlated to the fluorescence polarization (FP), after normalization, the fraction of bound FluoSTAT6 (B) was determined, and the KD was calculated according to B=[(1+P/R+KD/R)−((1+P/R+KD/R)²−4P/R)^{0.5}]/2, wherein P is the total probe concentration, R the total protein concentration and KD the dissociation constant (M. H. Roehrl, J. Y. Wang, G. Wagner, Biochemistry 2004, 3, 16056).
To determine the Kᵢ values of potential inhibitors of the STAT6/NCoA-1 interaction (competition fluorescence polarization) the compounds (dilution series from 0 to 100 μM final concentration) dissolved in HEPES buffer (10 mM HEPES, 150 mM NaCl, 3.4 mM EDTA, 0.1% BSA) were dispensed in a black 96 well plate (Greiner) and FluoSTAT6 (200 nM final concentration) in HEPES buffer was added. The mixture was completed by a HEPES buffer solution of NCoA-1 (1 μM final concentration) and processed as described above. STAT6Y (C-terminal tyrosine extended STAT6 794-814 peptide) was used as a positive control. As the total fluorescence intensity of FluoSTAT6 remains similar for all samples, the fraction of peptide bound to NCoA-1 is correlated to the fluorescence polarization.
Following normalization data were fitted with IGORpro Software® (WaveMetrics, Lake Oswego, Oreg., USA) to a sigmoid equation to determine IC₅₀ values.
For B1, the Ki stood at 4.7 µM. This counts as single-digit micromolar.
B2 came in with a Ki of 3.7 µM.
The molecule B3 had a Ki of 11.5 µM.
On to B4, for which the Ki is 24.3 µM. Against the preceding molecule, the Ki is about 2.1-fold higher.
On to B5, for which the affinity, expressed as Ki, was 8.7 µM. This Ki lies about 2.8-fold lower than the previous one.
Molecule B6 had a Ki of 6.6 µM.
B7 came in with a Ki of 7.9 µM. The Ki values of the last two molecules are within 1.5-fold of each other.
As for B8, the Ki worked out at 9.3 µM.
B9 displayed a Ki of 16.4 µM.
In turn, B10 displayed a Ki of 8.9 µM.
Regarding B11, the Ki was found to be 19.6 µM.
In the case of B12, affinity was put at a Ki of 7.1 µM.
The molecule B13 yielded a Ki of 3 µM.
B14 yielded a Ki of 15.8 µM. This Ki is about 5.3-fold higher than that of the molecule before.
Under B15 stands 1.5 µM.

What is called Ki is the dissociation constant of the complex between target and ligand, obtained from inhibition or displacement. Higher therefore signals a looser hold on the target.
